Reference: the nanobody polyreactivity screen of Harvey et al. (2022)

Assay: yeast display, Sf9 membrane polyspecificity reagent, FACS + sequencing; frameworks hold sequencing errors
Procedure, shortened: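 A synthetic nanobody library was expressed on Saccharomyces cerevisiae BJ5465 by galactose induction for 36–48 hours. The library was stained for 1 hour at 4 °C with 10% biotinylated, detergent-solubilized Sf9 membrane reagent and enriched with streptavidin microbeads before FACS. Low and high (top ~1%) gates were set on anti-HA fluorescence for expression and streptavidin fluorescence for reagent binding, and each polyreactivity label reflects the gate of origin.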
For “QVQLVESGGGLVKAGGSLRLSCAASGRTFRAYAMGWYRQAPGKERELVAAITSGGSTKYADSVKGRFTISRDNAKNTVYLQMNSLKPEETAVYYCNARFDRVYQLKWWYSYDYWGQCTQVTVSS”, the “polyreactivity (PSR sort gate)” value was “high polyreactivity”.
In the case of “QVQLVESGGGLVKAGGSLRLSCAASGSIFGRYAMGWYRQAPGKERELVAAISSGGRTYADSVKGRFTISRDNAKNTVYLQMNSLNPEDTAVYYCNARYDGRNSVGPYLGYNYWGQGTQVTVSS”, the “polyreactivity (PSR sort gate)” value is reported as “high polyreactivity”.
For “QVQLVESGGGLVKAGGSLRLSCAASGSIFGSYAMGWYRQAPGKERSTYYADSVKGRFTISRDNAKNTVYLQMNSLKPEDTAVYYRAADTYGYQGSAGGHWGLGTQVTVSS”, the “polyreactivity (PSR sort gate)” value was “low polyreactivity”.
With “QVQLVESGGGLVKAGGSLRLSCAASGSIFSNNAMGWYRQAPGKEREFVAAIRGRGTRTYYADSVKGRFTISRDNAKNTVYLQMNSLKPEDTAVYYCAKYPFQPRDLQFNYWGQGTQVTVSS” the “polyreactivity (PSR sort gate)” value was “high polyreactivity”.
In the case of “QVQLVESGGGLVKAGGSLRLSCAASGSIFTRNAMGWYRQAPGKERELVAAIRSRGGSTYYADSVKGRFTISRDNAKNTVYLQMNSLKPEDNAVYYCAKKDNTYIFDYWGQGTQVTVSS”, the “polyreactivity (PSR sort gate)” value is reported as “low polyreactivity”.
In the case of “QVQLVESGGGLVKAGGSLRLSCAASGSTFEYDMGWYRPAPGKERELVAAITWTDGGTYYADSVNGRCTISRDNAKNTVYFQMNSLKPEDTAVYYCNAEGWFADFDSGFYAFDYWGQGTQVTVSS”, the “polyreactivity (PSR sort gate)” value is reported as “low polyreactivity”.
In the case of “QVQLVESGGGLVKAGGSLRLSCAASGSTFGSNALGWYRQAPGKERELVAAISNSGGRTYYADSVKGRFTISRDNAKNTVYLQMNSLKPEDTAVYYCAVGSYRDGDYWGQGTQVTVSS”, the “polyreactivity (PSR sort gate)” value is reported as “high polyreactivity”.
In the case of “QVQLVESGGGLVKAGGSLRLSCAASGSTFHIYAMGWYRQAPGKERELVAAISKGGGNTYYADSVKGRFTISRDNAKNTVYLQMNSLKPEDTAVYYCAAVPTRYRSYTYTYGGYNYWGQGTQVTVSS”, the “polyreactivity (PSR sort gate)” value is reported as “high polyreactivity”.
In the case of “QVQLVESGGGLVKAGGSLRLSCAASGSTFRYYAMGWYRQAPGKERELVAGITTGGGRTYYADSVKGRFTISRDNAKNTVYLQMNSLKPEDTAVYYCAADRYSHYWYRISYDYWGQGTQVTVSS”, the “polyreactivity (PSR sort gate)” value is reported as “high polyreactivity”.
With “QVQLVESGGGLVKAGGSLRLSFAASGRIFRRYAMGWCGPAPGKEREFVAAITKSGGSTNYADSVKGRFTISRDNANNTVYLQMNSLKPEDTAVYYCATYPQFYFRYDYWGLGTQVTVSS” the “polyreactivity (PSR sort gate)” value was “high polyreactivity”.
With “QVQLVESGGGLVKAGGSLRLSFAASGSIFEPYVMGWYRQAPGKQRELVAAISESGDTTYYADSVKGRFTISRDNAKTTVYLKMNSLKPEDTAVYDCNAEDPSIYGWWRVGEYDYWGQGTQVTVSS” the “polyreactivity (PSR sort gate)” value was “low polyreactivity”.
For “QVQLVESGGGLVKAGGSLRLSSAASGRTFFRNAMGWYRQEPGKERELVAVISDNGGTNYADSVKGRFTMSRDNAKNTVYLQLNSLKPEDTAVDYCATPKRRRYPYYYWGLGTQVTVSS”, the “polyreactivity (PSR sort gate)” value was “high polyreactivity”.
For “QVQLVESGGGLVKAGGSLRLTCAASGIILRANVMGWYRQAAGKERELLAAISGSGGRTYYADSVKGRFTISRDNAKNSVYLPMNSLKPEDTAVYYCNTPYGLHQAYPYDYWGLGTQVTVSS”, the “polyreactivity (PSR sort gate)” value was “high polyreactivity”.
With “QVQLVESGGGLVKAGGSLRLTCAASGSIFKIYSMGWYIQAPGKERELVATITWSTGTTYYADSVKGRFTISRDNAKNTVFLQMNSLKPEDTAVYYCATEPSWYHGFIDPRGYWGQATQVTVSS” the “polyreactivity (PSR sort gate)” value was “low polyreactivity”.
With “QVQLVESGGGLVKAGGTLSLSCAASGFIFGFNAMGWYRQAPGKERELVADITSSGGSTYYADSVKGRFTISRDNAKNTVYLQMNSLKPEDTAVYYCAADGWWHNFYPGTGLDYWGQGTQVSVSS” the “polyreactivity (PSR sort gate)” value was “low polyreactivity”.
For “QVQLVESGGGLVLAGGSLPLSCAASGSIIWRNAMGWSRHAPVKERELVAAITWNGGSTYYADSVKGCFTSSRDNAKNTVYLQMNSLIPEDTAVYYSAARCEYPYDYWGQGSQVTVSS”, the “polyreactivity (PSR sort gate)” value was “low polyreactivity”.
For “QVQLVESGGGLVLAGGSLRLSCAASGFIFARYAMGWYRQAPGKERELVAAISRGGSTYYADSVKGRFTISRDNAKNTVYFQMHSLKPEDTAVYYCNKRQLPNARGSSTYEYWGQGTQVTVSS”, the “polyreactivity (PSR sort gate)” value was “high polyreactivity”.
With “QVQLVESGGGLVLAGGSLRLSCAASGRTFRTYTMGWYRQAPGKERELVAAISYSGGSTYYADSVKGRFTISRDNAKNTVYLQMNSLKPEDTAVYYCAVYQVGWYGLMDYWGEGTQVTVSS” the “polyreactivity (PSR sort gate)” value was “high polyreactivity”.
With “QVQLVESGGGLVLAGGSLRLSCAASGSTFRGNAMGWYRQAPGKERELVAAITRRGGSTYYADSVKGRFTISRDNAKNTVYLQMNSLKPEDTAVYYCAKVTTYVSAWQGNGYWGQGTQVTVSS” the “polyreactivity (PSR sort gate)” value was “high polyreactivity”.
With “QVQLVESGGGLVLAGGSLRLTWAASGSIFHYYAMGWYRQAPGKERELVAAISWSGGRTYYADSVKGRFTISRDNAKNTVYLEMNSLKPEDTAVYFCAADTYPYIGGYYWGQGTQVTVSS” the “polyreactivity (PSR sort gate)” value was “high polyreactivity”.
In the case of “QVQLVESGGGLVNAGGSLRLICDASGLIFYKNAMGWYRQAPGKERELVAAISWRDGRTYYADSVKGRFTISRDNAKNTVYLQMISLIPEDSAVYYCNAVRGITSYDYYYWGQGTQVTVSS”, the “polyreactivity (PSR sort gate)” value is reported as “high polyreactivity”.
In the case of “QVQLVESGGGLVPAGGSLRLSCAASGRIFFRNAMGWYRQAPGKERELVAAITYSGGSTYYADSVKGRFTISRDNAKNTVYLQMNSLKPEDTAVSYCAAGYWFSYSRVTRYDYWGQGTQVTVSS”, the “polyreactivity (PSR sort gate)” value is reported as “high polyreactivity”.
With “QVQLVESGGGLVPAGGSLRLSCAASGRIFGYYAMGWYRQATGKERELLATIRWRGGSPYYADSVKGRFTISRDNAKNTVYLQMNSLKPEVTAVYYCAATRARRWSSPGQYGYWGQGTQVTVSS” the “polyreactivity (PSR sort gate)” value was “high polyreactivity”.
For “QVQLVESGGGLVPAGGSLRLSCAASGRISDLYAMGCYRQAPGKETEVVAGSTWRGGSTYYADSVKGRFTISRDNAKNTVYLQMNSLKPEDTAVYYCNAVWVQQVVGDGKRTWNFWYDYWGQGTQVTVSS”, the “polyreactivity (PSR sort gate)” value was “low polyreactivity”.
In the case of “QVQLVESGGGLVPAGGSLRLSCAASGRTFGYYAMGWYRPAPGKERELVAAITSNGGSTYYADSVKGRFTISRDNAKNTVYLQMNSLKPEDTAVYYCNTGRRNRLYDYDYWGQGTQVTVSS”, the “polyreactivity (PSR sort gate)” value is reported as “high polyreactivity”.
In the case of “QVQLVESGGGLVPAGGSLRLSCAASGSTFIPNTMGWYRQAPGKERELVAAISRRGGSTNYADSVKGRFTISRDNAKNTVYLQMNSLKPEDTAVYYCAAVSPRRYRYDYWGQGTQVTVSS”, the “polyreactivity (PSR sort gate)” value is reported as “low polyreactivity”.
With “QVQLVESGGGLVPAGGSLRLSCAASGSTFPVYAMGWYRPAPGTERELVAAINSGVSTNYADSVKGRFTMSRDNANTTVYLQRNSLKPEDTAVYYCNTSYVGYPDLGINYEFDYWGQGTQVTVSS” the “polyreactivity (PSR sort gate)” value was “low polyreactivity”.
In the case of “QVQLVESGGGLVPAGGSLRLSCAASGSTFYIYAMGWYRQAPGKERELVAAISRRGSSTYYADSVKGRFTISRDNAKNTVYLQMNSLIPEDTAVYYCAASQRHDHYYWGQGTQVTVSS”, the “polyreactivity (PSR sort gate)” value is reported as “high polyreactivity”.
For “QVQLVESGGGLVQAAGSLRISCAASGRTFATNAMGWYRQAPGKERELVAVISASGGSTYYADSVKGRFTISRDNAKNTVYLQMNSLKPEDTAVYYCAADVYRRYDYWGQGTQVTVSS”, the “polyreactivity (PSR sort gate)” value was “high polyreactivity”.
In the case of “QVQLVESGGGLVQAAGSLRLICAASGRTFDSYAMGRYRQAPGKEREFVAAISYSGTSTYYADSVKGRFTISRDDAKNTVYLQMNSLKPEDTAVYYCAKEYIFRLWGQGTQVTVSS”, the “polyreactivity (PSR sort gate)” value is reported as “low polyreactivity”.
